Test results: article PMC4396695, “Structure of the Ribosomal Oxygenase OGFOD1 Provides Insights into the Regio- and Stereoselectivity of Prolyl Hydroxylases” (Structure(London, England:1993), 2015)

Target: the molecule itself
Assay: native gel or EMSA; non-denaturing PAGE of OGFOD1 and of Tpa1p, each run alone; conditions not given

B1: Tpa1p (termination and polyadenylation protein 1) (enzyme, S. cerevisiae, UniProt P40032 1-644, looked up)
chain: MKRKTAEVKGEKERNSKQISLEEDKIKGMFNPKIWDKTFQDGLKKEIEDSQPYNWGTIHELVNDDLLRAVRKEIETEIHFTKKETDIYRVNQSGDLANLSGLDWDDLSRLPNLFKLRQILYSKQYRDFFGYVTKAGKLSGSKTDMSINTYTKGCHLLTHDDVIGSRRISFILYLPDPDRKWKSHYGGGLRLFPSILPNVPHSDPSAKLVPQFNQIAFFKVLPGFSFHDVEEVKVDKHRLSIQGWYHIPQVGEEGYIPGEEEAWVRNNTSTLAQIESNVLEDFEFPKDERNILSFHEVKHFEKMLKGDAGAKTDNTPKESMTSVISDSVKLSEAEFTYLSQYISPEHLSSKGIEKLQKQFVENSSLQIESFLNDDKSELLKKVIKQKELEQECPYHSKDVKAPWKTAIPPHKARYLYIDGKEYRNFQTEADILEALNNNDLPNFQFTKDAIKIISDASGNSRENNFDAELALIDLAVFHKSTIFKKYLALLTSLCPVSEQILIRRFRPGMDFTLATKCRFNELLKSNPDIIDAVLEGTLCLTPSAGWESGELGGYELYMMDDDEDNKQYLKEDVEDASVYRADDSGDSVLINDPPAWNTFNLVLRDESVLEFVKYVSWSAKSSRWDVKMKWDVKSCDEDGQEDEA
notes: Tpa1p, Saccharomyces cerevisiae, full length, 644 aa, 74 kDa; plasmid pNIC28_Tpa1p; source: E. coli BL21(DE3), purified (HisTrap, Superdex 200, MonoQ)
In the case of B1, the “stoichiometry N” value is reported as 2.
